Article PMC8509707

Biological target: Recombinant His-tagged C-terminal ^ECFTO domain (CD-FTO) (human)
Assay: SEC; ^BTCaM (7.6 µM) and/or CD-FTO (15.2 µM), 10 min at 4 °C, SEC650 column in SEC1 buffer (50 mM MES pH 6.5, 150 mM NaCl, 10% glycerol, 1 mM 2-OG, 0.5 mM MnCl2, 0.5 mM CaCl2)

Substance: Recombinant His-tagged C-terminal ^ECFTO domain (CD-FTO) (domain or fragment)
- stoichiometry N: 2
